The record followed here is the Human Domainome abundance scans (Beltran et al. 2025).

± gives the uncertainty stated by the source.

To fix the notation:
B1: Dynamin-binding protein, residues 146 to 206; numbered along this chain, Q6XZF7 (parent)
chain: SMGQARALMGLSAQLDEELDFREGDVITIIGVPEPGWFEGELEGRRGIFPEGFVELLGPLR
B2: Nanos homolog 2, residues 63 to 115; numbered along this chain, P60321 (parent)
chain: CNFCKHNGESRHVYSSHQLKTPDGVVVCPILRHYVCPVCGATGDQAHTLKYCP

The variants in one series derive from B1. The experiment in a line: abundance fitness (aPCA) (normalised: wild type 0, dead -1); higher = more abundant; growth selection in yeast, the domain comes from the species named. Particulars: Homo sapiens.
As to R6Y, the abundance fitness was -0.471 ± 0.064.
Regarding R6Q, the abundance fitness was -0.495 ± 0.18.
Turning to R6N, the abundance fitness was -0.763 ± 0.094.
Same read-out and setting: the value for G3W was -0.227 ± 0.072.
Take G3N: the abundance fitness was 0.245 ± 0.043.
Still for that read-out and setting: the value for Q4L was -0.176 ± 0.047.
On the same count and under the same terms, the same measure for Q4M: -0.065 ± 0.13; for M2C: -0.521 ± 0.095; for M2V: -0.277 ± 0.062.
The same measure, in the same setting: the same measure for M2I: -0.03 ± 0.058; for A5C: -0.302 ± 0.067.
A5P: the abundance fitness was -0.686 ± 0.11.
On the same count and under the same terms, the value for A5G was -0.008 ± 0.045.
On the same count and under the same terms, the same measure for A5K: -0.696 ± 0.39.
Same read-out and setting: the same measure for A5S: -0.545 ± 0.13; for A5D: -0.706 ± 0.18; for S1M: 0.073 ± 0.3.
Take S1H: the abundance fitness was -0.104 ± 0.12.
Turning to S1A, the abundance fitness is 0.121 ± 0.084.
Turning to S1N, the abundance fitness is -0.049 ± 0.11.
On the same count and under the same terms, the value for S1C was -0.077 ± 0.056; that for S1L was -0.554 ± 0.14; that for S1D was -0.036 ± 0.15.
The same measure, in the same setting: the value for S1R was -0.319 ± 0.12.
Still for that read-out and setting: the value for S1P was -0.661 ± 0.36; that for S1W was -0.16 ± 0.27.
With S1Y, the abundance fitness was found to be 0.064 ± 0.06.
The same measure, in the same setting: the value for S1V was 0.076 ± 0.11; that for S1F was -0.029 ± 0.087; that for S1I was 0.103 ± 0.084.
With S1T, the abundance fitness is -0.092 ± 0.11.
Same read-out and setting: the same measure for A7Y: -0.93 ± 0.12.
On the same count and under the same terms, the value for A7N was -0.781 ± 0.11.
Turning to A7V, the abundance fitness is -0.836 ± 0.24.
Still for that read-out and setting: the value for A7F was -1.01 ± 0.21; that for A7K was -0.672 ± 0.21; that for A7E was -0.989 ± 0.33.
Regarding A7T, the abundance fitness was -0.296 ± 0.21.

Variants of B2 are the subject of another series. The series is described as above. To be noted: Homo sapiens.
As for R11W, the abundance fitness is -0.408 ± 0.093.
On the same count and under the same terms, the value for R11C was -0.497 ± 0.19; that for R11I was 0.063 ± 0.12.
In the case of R11F, the abundance fitness turned out to be 0.07 ± 0.16.
Take R11K: the abundance fitness is -0.317 ± 0.17.
Still for that read-out and setting: the same measure for R11M: -0.156 ± 0.12; for R11Q: -0.077 ± 0.18; for T48E: 0.091 ± 0.093.
Regarding T48R, the abundance fitness is -0.247 ± 0.054.
On the same count and under the same terms, the same measure for T48V: -0.045 ± 0.079.
For the variant T48I, the abundance fitness is -0.417 ± 0.22.
The same measure, in the same setting: the value for T48S was -0.19 ± 0.077; that for T48W was -0.284 ± 0.077; that for T48C was -0.158 ± 0.097.
As for T48F, the abundance fitness is -0.326 ± 0.073.
In the case of T48H, the abundance fitness is -0.363 ± 0.18.
On the same count and under the same terms, the same measure for Y51G: -0.193 ± 0.073.
Turning to Y51M, the abundance fitness was -0.203 ± 0.12.
Regarding Y51D, the abundance fitness is -0.381 ± 0.15.
The same measure, in the same setting: the value for Y51L was -0.137 ± 0.077; that for Y51I was -0.34 ± 0.17.
The same measure, in the same setting: the value for Y51E was -0.368 ± 0.15; that for G40P was -0.595 ± 0.079; that for G40T was -0.063 ± 0.12.
Turning to G40N, the abundance fitness was -0.134 ± 0.21.
Take G40D: the abundance fitness was found to be 0.343 ± 0.16.
Take G40A: the abundance fitness is -0.08 ± 0.12.
As to G40F, the abundance fitness was -0.012 ± 0.23.
Still for that read-out and setting: the same measure for P29Q: -0.38 ± 0.17; for P29K: -0.364 ± 0.074.
On the same count and under the same terms, the same measure for P29G: -0.588 ± 0.089; for P29M: -1.05 ± 0.16; for P22R: -0.079 ± 0.075.
As for P22G, the abundance fitness is -0.041 ± 0.084.
On to P22W, for which the abundance fitness was -0.321 ± 0.17.
On the same count and under the same terms, the same measure for P22E: -0.184 ± 0.1; for P22V: -0.053 ± 0.069; for P22N: -0.12 ± 0.22.
For the variant P22C, the abundance fitness worked out at 0.002 ± 0.15.
For P22D, the abundance fitness is -0.112 ± 0.1.
Still for that read-out and setting: the value for P22T was -0.084 ± 0.092.
The same measure, in the same setting: the value for P22S was 0.037 ± 0.069; that for P22K was 0.306 ± 0.13; that for P22L was -0.067 ± 0.096.
Still for that read-out and setting: the same measure for H6G: -0.011 ± 0.056; for H6P: -0.277 ± 0.12.
As for H6R, the abundance fitness was 0.078 ± 0.05.
Still for that read-out and setting: the same measure for H6N: -0.003 ± 0.11; for H6F: -0.147 ± 0.11; for H6A: -0.011 ± 0.07.
For G43P, the abundance fitness is -0.718 ± 0.079.
On to G43A, for which the abundance fitness is -0.138 ± 0.075.
As to G43I, the abundance fitness is -0.744 ± 0.17.
Still for that read-out and setting: the value for G43L was -0.494 ± 0.08.
On to G43N, for which the abundance fitness is -0.35 ± 0.23.
On the same count and under the same terms, the value for G43C was -0.421 ± 0.13.
Regarding G43R, the abundance fitness was -0.135 ± 0.09.
Same read-out and setting: the value for F3I was -0.399 ± 0.25.
On the same count and under the same terms, the same measure for F3N: -0.877 ± 0.27.
For F3T, the abundance fitness is -0.988 ± 0.19.
Still for that read-out and setting: the same measure for F3R: -0.848 ± 0.046; for F3E: -1.22 ± 0.25.
The same measure, in the same setting: the same measure for F3H: -0.502 ± 0.13; for F3K: -1.44 ± 0.43; for F3Q: -0.933 ± 0.094.
With F3C, the abundance fitness was -0.632 ± 0.084.
Turning to F3L, the abundance fitness was -0.576 ± 0.075.
The same measure, in the same setting: the same measure for V27Y: -0.128 ± 0.13; for V27P: -0.434 ± 0.09.
For the variant V27L, the abundance fitness is -0.075 ± 0.11.
On the same count and under the same terms, the value for V27G was -0.085 ± 0.082; that for V27A was -0.074 ± 0.087; that for V27W was -0.144 ± 0.14.
Turning to V27K, the abundance fitness is -0.132 ± 0.15.
Take V35Y: the abundance fitness is -0.086 ± 0.16.
Still for that read-out and setting: the same measure for V35F: -0.676 ± 0.2; for V35D: -0.398 ± 0.1; for V35M: -0.51 ± 0.2.
Take V35W: the abundance fitness was -0.445 ± 0.12.
As to V35A, the abundance fitness is -0.209 ± 0.085.
As to C1L, the abundance fitness is -0.745 ± 0.064.
C4Y: the abundance fitness was -0.874 ± 0.16.
With C4R, the abundance fitness was -0.933 ± 0.051.
On the same count and under the same terms, the same measure for C4S: -0.635 ± 0.06; for C4Q: -0.959 ± 0.21; for C4A: -1.06 ± 0.11.
Take S16N: the abundance fitness came to 0.023 ± 0.12.
On the same count and under the same terms, the same measure for S16I: -0.406 ± 0.17; for S16Q: -0.042 ± 0.055; for S16L: -0.456 ± 0.074.
For the variant S16D, the abundance fitness is -0.08 ± 0.13.
Still for that read-out and setting: the same measure for H12D: 0.188 ± 0.085.
Take H12E: the abundance fitness was 0.226 ± 0.063.
With H12F, the abundance fitness is -0.031 ± 0.14.
In the case of H12R, the abundance fitness is -0.049 ± 0.059.
Same read-out and setting: the same measure for H12I: -0.043 ± 0.16; for D23H: -0.307 ± 0.21; for D23F: -0.371 ± 0.1.
On to D23W, for which the abundance fitness was -0.306 ± 0.11.
D23Q: the abundance fitness was -0.061 ± 0.072.
On the same count and under the same terms, the same measure for D23M: -0.234 ± 0.093.
With D23T, the abundance fitness was -0.211 ± 0.13.
Still for that read-out and setting: the same measure for D23P: -0.378 ± 0.11; for V13W: -0.04 ± 0.11.
Same read-out and setting: the same measure for V13S: -0.008 ± 0.069.
The same measure, in the same setting: the same measure for V13Y: -0.125 ± 0.11.
As for V13E, the abundance fitness is -0.058 ± 0.094.
Still for that read-out and setting: the same measure for V13I: -0.195 ± 0.15; for V13P: -0.477 ± 0.13; for I30E: -0.108 ± 0.13.
The same measure, in the same setting: the value for I30K was 0.127 ± 0.089; that for I30D was -0.345 ± 0.28; that for I30A was 0.084 ± 0.1.
As for G24C, the abundance fitness was -0.496 ± 0.19.
Same read-out and setting: the same measure for G24K: -0.353 ± 0.094; for G24E: -0.115 ± 0.079.
Regarding R32G, the abundance fitness is -0.352 ± 0.069.
Still for that read-out and setting: the value for R32S was -0.225 ± 0.09.
On the same count and under the same terms, the same measure for R32N: -0.522 ± 0.19.
Same read-out and setting: the value for R32W was -0.419 ± 0.1.
For the variant R32K, the abundance fitness was -0.204 ± 0.14.
For D44I, the abundance fitness was -0.457 ± 0.25.
For D44E, the abundance fitness was -0.334 ± 0.14.
Still for that read-out and setting: the same measure for D44R: -0.403 ± 0.084.
Still for that read-out and setting: the same measure for D44T: -0.14 ± 0.075; for D44C: -0.391 ± 0.12.
The same measure, in the same setting: the value for D44V was -0.299 ± 0.08; that for E9M was -0.116 ± 0.073.
With E9Q, the abundance fitness is -0.116 ± 0.14.
